This is an account of results in patent US20170369571A1 (AbbVie / Abbott, published 2017).

For experiment [1], the target named is human SEZ6 on patient-derived NTX tumor cells (human) (UniProt Q53EL9). Kind of experiment: flow cytometry, LU64 NTX tumor cells, dot plot CD324 against MOPC isotype control, gate at 10^3.
For experiment [2] the target is unchanged. Briefly: flow cytometry, LU117 NTX tumor cells, dot plot CD324 against MOPC isotype control, gate at 10^3.
Experiment [3] has the same target. Kind of experiment: flow cytometry, LU86 NTX tumor cells, dot plot CD324 against MOPC isotype control.
The target is the same in experiment [4]. Kind of experiment: flow cytometry on LU100 NTX tumor cells; FMO (MFI) of the same line 289.
Experiment [5] shares this target. Briefly: flow cytometry, LU64 NTX tumor cells, dot plot CD324 against SC17.42, gate at 10^3.
For experiment [6], the target named is human SEZ6 overexpressed on HEK-293T cells (human, UniProt Q53EL9 20-994). Kind of experiment: cell-based or functional assay.
Experiment [7] deals with T1, cynomolgus SEZ6 extracellular domain displayed on yeast (cynomolgus, UniProt Q53EL9 23-925 (human entry)).
T1 construct: also called cSEZ6; cynomolgus SEZ6 ECD
T1 chain: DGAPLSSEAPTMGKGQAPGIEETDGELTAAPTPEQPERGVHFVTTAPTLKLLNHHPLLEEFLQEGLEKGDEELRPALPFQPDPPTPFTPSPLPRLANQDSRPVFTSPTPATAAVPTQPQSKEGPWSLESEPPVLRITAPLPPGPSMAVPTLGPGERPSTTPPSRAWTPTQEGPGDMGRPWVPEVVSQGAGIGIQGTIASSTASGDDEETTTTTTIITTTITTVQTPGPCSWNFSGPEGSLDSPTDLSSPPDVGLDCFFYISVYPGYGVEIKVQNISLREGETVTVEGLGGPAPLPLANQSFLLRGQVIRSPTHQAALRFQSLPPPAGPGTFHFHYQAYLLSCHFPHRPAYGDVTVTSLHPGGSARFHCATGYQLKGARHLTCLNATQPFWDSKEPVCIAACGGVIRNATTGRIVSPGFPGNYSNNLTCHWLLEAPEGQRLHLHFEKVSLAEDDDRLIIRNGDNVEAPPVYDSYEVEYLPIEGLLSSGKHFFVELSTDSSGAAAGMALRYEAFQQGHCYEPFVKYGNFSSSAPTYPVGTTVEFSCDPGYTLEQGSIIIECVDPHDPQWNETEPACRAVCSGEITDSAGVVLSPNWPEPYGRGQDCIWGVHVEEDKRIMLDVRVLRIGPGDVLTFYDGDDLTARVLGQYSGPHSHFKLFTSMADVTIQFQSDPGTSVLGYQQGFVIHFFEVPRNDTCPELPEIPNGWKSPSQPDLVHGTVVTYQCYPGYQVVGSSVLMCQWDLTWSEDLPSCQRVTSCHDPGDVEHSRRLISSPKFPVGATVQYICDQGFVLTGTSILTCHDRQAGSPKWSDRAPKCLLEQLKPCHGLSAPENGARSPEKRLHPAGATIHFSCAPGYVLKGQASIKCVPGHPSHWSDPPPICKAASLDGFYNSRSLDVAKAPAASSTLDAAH
Briefly: assay not given.

Experiment [8] has as its target T2, recombinant rat SEZ6 ECD with 9-Histidine tag (rat, UniProt Q7TSK2 20-922 (mouse entry)).
T2 construct: also called rSEZ6-ECD-His; rat recombinant SEZ6-His
T2 chain: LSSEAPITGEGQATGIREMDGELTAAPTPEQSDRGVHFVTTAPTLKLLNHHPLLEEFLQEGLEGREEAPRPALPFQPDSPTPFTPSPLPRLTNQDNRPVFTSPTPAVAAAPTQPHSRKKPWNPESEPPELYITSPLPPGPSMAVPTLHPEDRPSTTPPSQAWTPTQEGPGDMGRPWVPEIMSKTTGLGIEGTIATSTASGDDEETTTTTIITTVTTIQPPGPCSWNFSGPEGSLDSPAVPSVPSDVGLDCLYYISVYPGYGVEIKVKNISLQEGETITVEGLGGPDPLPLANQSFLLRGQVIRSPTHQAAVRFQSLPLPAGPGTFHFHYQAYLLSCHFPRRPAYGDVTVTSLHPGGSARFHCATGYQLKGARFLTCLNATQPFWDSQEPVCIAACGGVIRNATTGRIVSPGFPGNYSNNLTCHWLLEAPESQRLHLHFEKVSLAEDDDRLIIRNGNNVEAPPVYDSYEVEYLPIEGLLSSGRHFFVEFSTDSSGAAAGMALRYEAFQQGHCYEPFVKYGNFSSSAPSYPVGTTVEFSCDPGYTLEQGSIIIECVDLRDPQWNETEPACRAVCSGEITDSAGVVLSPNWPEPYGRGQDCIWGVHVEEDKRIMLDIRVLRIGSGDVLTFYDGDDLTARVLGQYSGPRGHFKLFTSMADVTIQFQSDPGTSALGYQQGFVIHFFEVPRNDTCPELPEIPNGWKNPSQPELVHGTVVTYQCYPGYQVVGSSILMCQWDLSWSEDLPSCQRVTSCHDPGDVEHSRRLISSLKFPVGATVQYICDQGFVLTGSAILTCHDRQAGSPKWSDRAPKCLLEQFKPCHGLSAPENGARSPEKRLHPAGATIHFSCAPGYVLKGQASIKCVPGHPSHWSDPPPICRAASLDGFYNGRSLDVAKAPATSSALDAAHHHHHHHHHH
Kind of experiment: assay not given.

On to MOPC (antibody), for which the % of cells CD324+ and MOPC+ (upper right quadrant) in experiment [1] was 0.597%; in experiment [2] it was 0.347%; in experiment [3], 0.483%. Moreover, the % of cells CD324- and MOPC+ (lower right quadrant) was found to be 0.05% in experiment [2] and 0.014% in experiment [3].

B1: SC17.42 (antibody, from a related filing, V domains shown)
VH: DVKLVESGGGLVRPGGSLKLSCAASGFTFSRYTMSWVRQTPEKRLEWAATINSGGSNTYYPDSVKGRFTISRDNAKNTLFLQMSSLKSEDTAMYYCTNGNHWGQGTTLTVSS
VL: ENVLTQSPAIMSASPGEKVTMTCSASSSVNYMYWYQQKSSTSPKLWIYDTSKLTSGVPGRFSGSGSGNSYSLTISNMEAEDVATYYCFQGSGYPLTFGSGTKLEIK
B1 showed a Tumor (MFI) in experiment [4] of 1400. In addition, in experiment [5], the % of cells CD324+ and SC17.42+ (upper right quadrant) turned out to be 27.7%; the % of cells CD324- and SC17.42+ (lower right quadrant) turned out to be 0.637%.

B2: hSC17.17-ADC1 (antibody, V domains shown)
VH: QVQLVQSGAEVKKPGASVKVSCKASGYTFTDYNMHWVRQAPGQGLEWMGEINPNIGGTGYNQKFKGRVTMTRDTSISTAYMELSRLRSDDTAVYYCARTYSYYSYEFAYWGQGTLVTVSS
VL: EIVLTQSPATLSLSPGERATLSCSASSSVSYMHWYQQKPGQAPRLLIYDTSKLPSGIPARFSGSGSGTDFTLTISSLEPEDFAVYYCQQWSSTPPTFGQGTKLEIK
modifications: PBD dimer (ADC1) through a maleimido linker on reduced Cys residues
Take B2: the “in vitro cytotoxicity, IC50” value in experiment [6] stood at 11 nM.

B3: SC17.46 (antibody, V domains shown)
VH: QVQLQQPGAELVKPGASMKLSCKASGYTFTSYWINWVKQRPGQGLEWIGNIFPDTTTTNYNEKFKSKATLTVDTSSSTAYMQLSSLTSDDSAVYYCAREYYDGTYDAMDYWGQGTSVTVS
VL: SFVMTQTPKFLLVSAGDRVTITCKASQSVNNDVAWYQQKPGQSPKLLIYYASNRYTGVPDRFTGSGYGTDFTFTISTVQAEDLAVYFCQQDYSSPRTFGGGTKLEIK
notes: murine mAb
As to B3, the binding result in experiment [7] and in experiment [8] was “no binding” each time.
